Data from patent US5622930A, “C1 inhibitor muteins and uses thereof” (CLB, priority 1991, dated 1997).
Residue numbers refer to the chain shown, from its start.

B1: P5 -leu:P3 -ala: C1 inhibitor mutein with Leu at position 440 (P5) and Ala at position 442 (P3) (protein, UniProt P05155 23-500, looked up, variant I440L V442A)
Plasma protease C1 inhibitor: NPNATSSSSQDPESLQDRGEGKVATTVISKMLFVEPILEVSSLPTTNSTTNSATKITANTTDEPTTQPTTEPTTQPTIQPTQPTTQLPTDSPTQPTTGSFCPGPVTLCSDLESHSTEAVLGDALVDFSLKLYHAFSAMKKVETNMAFSPFSIASLLTQVLLGAGENTKTNLESILSYPKDFTCVHQALKGFTTKGVTSVSQIFHSPDLAIRDTFVNASRTLYSSSPRVLSNNSDANLELINTWVAKNTNNKISRLLDSLPSDTRLVLLNAIYLSAKWKTTFDPKKTRMEPFHFKNSVIKVPMMNSKKYPVAHFIDQTLKAKVGQLQLSHNLSLVILVPQNLKHRLEDMEQALSPSVFKAIMEKLEMSKFQPTLLTLPRIKVTTSQDMLSIMEKLEFFDFSYDLNLCGLTEDPDLQVSAMQHQTVLELTETGVEAAAASALSAARTLLVFEVQQPFLFVLWDQQHKFPVFMGRVYDPRA
B2: P5 -leu:P3 -leu: C1 inhibitor mutein with Leu at position 440 (P5) and Leu at position 442 (P3) (protein, UniProt P05155 23-500, looked up, variant I440L V442L)
Plasma protease C1 inhibitor: B1 Plasma protease C1 inhibitor with A442L

Test system: HNE
Experiment: inactivation of C1 inhibitor muteins by elastase (protease sensitivity)
Type: biochemical
Details: neutrophil elastase as the source of protease; compared to wild type C1 inhibitor
Source text: FIG. 2 presents a generalized assay screening format for determining both the inhibitory (complex formation) or protease sensitivity (inactivation) of the C1 muteins. The latter measures inactivation of the C1 inhibitor muteins by non-target proteases. This procedure is also described by Eldering et al., 1988, in J. of Biological Chem., 263: 11776. Modifications of these methods are also known in the art.
Using similar approaches, the non-target protease sensitivity of the C1 inhibitor muteins may be determined. Numerous assays may be employed that measure the amount of intact C1 inhibitor mutein, or fragments that are derived from the muteins, remaining after exposure to protease. […] A solid phase assay is preferred whereby C1 inhibitor muteins are reacted with non-target protease bound to a solid matrix and the amount of proteolysis of the muteins measured by determining the amount of intact mutein remaining, or preferably by detecting fragments of the mutein.
An exemplary non-target protease that cleaves C1 is neutrophil elastase. Thus, this enzyme may be coupled to CNBr treated Sepharose 4B, and incubated with a C1 inhibitor mutein, and the presence of proteolytically cleaved C1 mutein monitored using a number of techniques. […] Subsequently, the amount of bound cleaved C1 inhibitor can be determined using a second radiolabelled antibody that recognizes the cleaved molecule. […]

| Molecule | susceptibility to inactivation |
| --- | --- |
| B1 | significantly reduced susceptibility to inactivation |
| B2 | significantly reduced susceptibility to inactivation |
